Key:
[1] = molecular target: T1, HNF-1A DD-DBD (HNF-1A 1-279) (UniProt P20823 1-279); experiment: ITC; ITC: 20 mM HEPES pH 7.5, 200 mM NaCl, 1 mM TCEP, 30 C, 250 uM dsDNA into 50 uM protein; BLI: streptavidin sensor with BiotinTEG dsDNA, buffer not in material; conditions: protein: recombinant; tags: His6 removed by TEV; chain copies: 2; label: 5' BiotinTEG on forward strand (BLI only); blunt
[2] = molecular target: T1, HNF-1A DD-DBD (HNF-1A 1-279); experiment: BLI; kinetic Kd (koff/kon); kon ~3x lower, koff ~3x higher; ITC: 20 mM HEPES pH 7.5, 200 mM NaCl, 1 mM TCEP, 30 C, 250 uM dsDNA into 50 uM protein; BLI: streptavidin sensor with BiotinTEG dsDNA, buffer not in material; conditions: protein: recombinant; tags: His6 removed by TEV; chain copies: 2; label: 5' BiotinTEG on forward strand (BLI only); blunt
[3] = molecular target: T1, HNF-1A DD-DBD (HNF-1A 1-279); experiment: ITC; increase vs WT not significant; ITC: 20 mM HEPES pH 7.5, 200 mM NaCl, 1 mM TCEP, 30 C, 250 uM dsDNA into 50 uM protein; BLI: streptavidin sensor with BiotinTEG dsDNA, buffer not in material; conditions: protein: recombinant; tags: His6 removed by TEV; chain copies: 2; label: 5' BiotinTEG on forward strand (BLI only); blunt
[4] = molecular target: T1, HNF-1A DD-DBD (HNF-1A 1-279); experiment: BLI; ITC: 20 mM HEPES pH 7.5, 200 mM NaCl, 1 mM TCEP, 30 C, 250 uM dsDNA into 50 uM protein; BLI: streptavidin sensor with BiotinTEG dsDNA, buffer not in material; conditions: protein: recombinant; tags: His6 removed by TEV; chain copies: 2; label: 5' BiotinTEG on forward strand; blunt
[5] = molecular target: T1, HNF-1A DD-DBD (HNF-1A 1-279); experiment: ITC; 2:1 protein:DNA stoichiometry; ITC: 20 mM HEPES pH 7.5, 200 mM NaCl, 1 mM TCEP, 30 C, 250 uM dsDNA into 50 uM protein; BLI: streptavidin sensor with BiotinTEG dsDNA, buffer not in material; conditions: protein: recombinant; tags: His6 removed by TEV; chain copies: 2; label: 5' BiotinTEG on forward strand (BLI only); blunt
[6] = molecular target: T1, HNF-1A DD-DBD (HNF-1A 1-279); experiment: BLI; kinetic Kd (koff/kon); ITC: 20 mM HEPES pH 7.5, 200 mM NaCl, 1 mM TCEP, 30 C, 250 uM dsDNA into 50 uM protein; BLI: streptavidin sensor with BiotinTEG dsDNA, buffer not in material; conditions: protein: recombinant; tags: His6 removed by TEV; chain copies: 2; label: 5' BiotinTEG on forward strand (BLI only); blunt
[7] = molecular target: T1, HNF-1A DD-DBD (HNF-1A 1-279); experiment: ITC; text refers to ref 36; Methods also list RA among the titrations done here; ITC: 20 mM HEPES pH 7.5, 200 mM NaCl, 1 mM TCEP, 30 C, 250 uM dsDNA into 50 uM protein; BLI: streptavidin sensor with BiotinTEG dsDNA, buffer not in material; conditions: protein: recombinant; tags: His6 removed by TEV; chain copies: 2; label: 5' BiotinTEG on forward strand (BLI only); blunt

T1 sequence (P20823 1-279): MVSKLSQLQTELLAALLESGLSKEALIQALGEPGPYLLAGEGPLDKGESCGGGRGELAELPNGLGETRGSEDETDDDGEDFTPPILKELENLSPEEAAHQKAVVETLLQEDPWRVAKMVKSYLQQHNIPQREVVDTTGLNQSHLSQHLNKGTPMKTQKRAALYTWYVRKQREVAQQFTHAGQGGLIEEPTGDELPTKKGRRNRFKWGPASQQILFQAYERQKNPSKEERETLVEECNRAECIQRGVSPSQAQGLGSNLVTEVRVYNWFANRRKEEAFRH

B1: P2 -181G>T (dsDNA)
DNA 1: ACTGTTTACTCTTTAACGTAT
DNA 2: ATACGTTAAAGAGTAAACAGT
Work on B1 yielded a Kd [1] of 700 nM and a binding signal [2] of ~10 fold Kd vs P2 WT.

B2: P2 -181G>A (dsDNA)
DNA 1: ACTGATTACTCTTTAACGTAT
DNA 2: ATACGTTAAAGAGTAATCAGT
With B2 the Kd [3] was 600 nM.

B3: Randomized sequence (dsDNA)
DNA 1: TCATCATATCATGCTATAAAT
DNA 2: ATTTATAGCATGATATGATGA
B3: no binding [4].

B4: P2 WT (P2-HNF4A promoter) (dsDNA)
DNA 1: ACTGGTTACTCTTTAACGTAT
DNA 2: ATACGTTAAAGAGTAACCAGT
B4 was tested, and the Kd [5] was 304 ± 134 nM.

B5: P2 -169C>T (dsDNA)
DNA 1: ACTGGTTACTCTTTAATGTAT
DNA 2: ATACATTAAAGAGTAACCAGT
With B5 the “Kd fold change vs P2 WT” value [6] was ~5 fold Kd vs P2 WT and the Kd [1] was 1200 nM.

B6: RA (rat albumin promoter) (dsDNA)
DNA 1: CTTGGTTAATAATTCACCAGA
DNA 2: TCTGGTGAATTATTAACCAAG
Work on B6 yielded a Kd [7] of 100 ± 50 nM.

— article PMC11382887, “Molecular mechanism of HNF-1A–mediated HNF4A gene regulation and promoter-driven HNF4A-MODY diabetes”
